Here are results for one molecule from patent US20220389077A1, “ALLOGENEIC CELL COMPOSITIONS AND METHODS OF USE” (Poseida Therapeutics, Inc., priority 2018, published 2022).

One test addresses T1, human CD58 (Homo sapiens, UniProt P19256).
T1 construct: expressed in transfected cells; host or cells: K562 (electroporated) or Rat2 (lipofected) cells
T1 sequence (P19256 29-250): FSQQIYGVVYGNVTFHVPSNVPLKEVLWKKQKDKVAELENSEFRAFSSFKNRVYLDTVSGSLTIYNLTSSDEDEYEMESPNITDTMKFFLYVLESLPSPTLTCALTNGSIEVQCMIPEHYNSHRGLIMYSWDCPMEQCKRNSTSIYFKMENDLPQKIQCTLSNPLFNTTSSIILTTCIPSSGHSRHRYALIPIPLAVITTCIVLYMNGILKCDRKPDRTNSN
Briefly: T cell degranulation (CD107a) against CD58-positive cell targets. The test is classed as cell-based. Particulars: 4-6 hours coculture; K562 or Rat2 cells with mRNA encoding human CD58. How it is done:
FIG. 23B is a series of bar graphs showing CSR CD2z mutant degranulation data. The panel of CSR CD2z mutants was tested for the capability of mediating degranulation against CD58-positive cell targets. T cell degranulation is a surrogate of T cell killing that can be measured by FACS staining for intracellular CD107a expression following coculture with target cell lines expressing target antigen. Specifically, pan T cells from normal blood donors were stimulated with anti-CD3/anti-CD28 beads in standard T cell culture media, then rested. These cells were then electroporated (BTX ECM 830 electroporator @ 500V for 700 μs) with 9 μg of mRNA expressing CSR CD2z mutants and cultured overnight. The next day, the cells were cocultured for 4-6 hours in the presence of various target cell lines. Positive target cell lines included K562 cells or Rat2 cells that were electroporated or lipofected, respectively, with mRNA encoding human CD58, while negative controls were either Rat2 cells that were not electroporated or CSR CD2z mutant expressing T cells alone.
FIG. 23C is a summary of staining and degranulation data. Data from surface-expression and binding studies, as well as those from degranulation experiments for each CSR CD2z mutant is summarized in the table.
(§1) FIG. 23D is a series of flow cytometry plots showing the expression of CD48, CD58 or CD59 on K562 and Rat2 cells. To confirm possible ligands for the CSR WT CD2z molecule, a panel of known and suspected ligands including human CD48, CD58, and CD59 were tested. Degranulation of engineered T cells was evaluated against the cell lines K562 and Rat2 that were made to overexpress the target ligands and confirmed for expression by FACS staining. Red histograms are unstained cells and blue histograms are cells that were electroporated/lipofected with mRNA and then stained for expression of the respective marker by FACS.
FIG. 23E is a bar graph showing that CSR CD2z recognizes human CD58, but not CD48 or CD59. To confirm possible ligands for the CSR WT CD2z molecule, a panel of known and suspected ligands including human CD48, CD58, and CD59 were tested. Degranulation of engineered T cells was evaluated against the cell lines K562 and Rat2 that were made to overexpress the target ligands and confirmed for expression by FACS staining. Cells were electroporated/lipofected with mRNA and then stained for expression of the respective marker by FACS. As a control, a BCMA CAR was included as well as a K562 cell line overexpressing BCMA. In addition, T cells transfected with GFP were also included as a control. T cell degranulation is a surrogate of T cell killing that can be measured by FACS staining for intracellular CD107a expression following coculture with target cell lines expressing target antigen. Pan T cells from normal blood donors were stimulated with anti-CD3/anti-CD28 beads in standard T cell culture media, then rested. These T cells were then electroporated with mRNA expressing CSR WT CD2z, BCMA CAR, or GFP and cultured overnight. The next day, the cells were cocultured for 4-6 hours in the presence of the various target cell lines that were electroporate/lipofected with mRNA encoding human CD48, CD58 or CD59, while negative controls were either K562 or Rat2 cells that were not electroporated/lipofected, or each of the electroporated T cells alone.

The target in another test is T2, human CD48 (Homo sapiens, UniProt P09326).
T2 construct: expressed in transfected cells; host or cells: K562 or Rat2 cells, electroporated/lipofected with mRNA
T2 sequence (P09326 27-220): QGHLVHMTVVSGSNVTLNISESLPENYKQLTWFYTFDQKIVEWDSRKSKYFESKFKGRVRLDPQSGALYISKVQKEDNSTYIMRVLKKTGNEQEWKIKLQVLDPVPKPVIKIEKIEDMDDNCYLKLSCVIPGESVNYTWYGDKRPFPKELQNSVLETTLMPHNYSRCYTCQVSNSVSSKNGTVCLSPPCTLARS
Briefly: T cell degranulation (CD107a) against cells overexpressing CD48. To be noted: 4-6 hours coculture; K562 or Rat2 cells. The test is classed as cell-based. How it is done: as §1
FIG. 23E is a bar graph showing that CSR CD2z recognizes human CD58, but not CD48 or CD59. To confirm possible ligands for the CSR WT CD2z molecule, a panel of known and suspected ligands including human CD48, CD58, and CD59 were tested. Degranulation of engineered T cells was evaluated against the cell lines K562 and Rat2 that were made to overexpress the target ligands and confirmed for expression by FACS staining. Cells were electroporated/lipofected with mRNA and then stained for expression of the respective marker by FACS. […] T cell degranulation is a surrogate of T cell killing that can be measured by FACS staining for intracellular CD107a expression following coculture with target cell lines expressing target antigen. […]

For the next test, the system named is Allo CAR-T cells. Briefly: Expansion of Allo CAR-T cells with WT or mutant (D111H) CSR CD2z. The test is classed as cell-based, human. To be noted: up to 15-day culture; CSR stable or transient. The text has this:
FIG. 24A is a bar graph showing that the delivery of CSR CD2z-D111H mutant enhances the expansion of Allo CAR-T cells. Pan T cells isolated from healthy donor blood were genetically modified using the piggyBac® DNA modification system in combination with the Cas-CLOVER™ gene-editing system (CC) for the production of allogeneic (Allo) CAR-T cells, or without CC gene-editing, as a control, for the production of autologous (Auto) CAR-T without a CSR (No CSR); auto CAR-T cells were produced by nucleofection of an mRNA encoding the super piggyBac™ transposase enzyme (SPB) and a transposon encoding a CAR, selection gene and a safety switch. […] Following EP, all cells were subsequently stimulated with a cocktail of agonist mAbs anti-CD2, anti-CD3 and anti-CD28, and were later selected for genetic modification over the course of up to a 15-day culture period using the selection gene. At the end of the initial culture period, all T cells expressed the CAR, indicating successful selection for genetically-modified cells (data not shown), and then all non-edited TCR-positive cells were depleted via negative selection to yield a population of Allo CAR-T cells that were >99% TCR-negative (data not shown).

The subject of another test is TCRb and b2M. Briefly: Gene editing (knockout of TCR and MHCI) of Allo CAR-T cells with CSR. Particulars: up to 14-day culture; CSR stable or transient. The test is classed as cell-based, human. The text has this:
Pan T cells isolated from healthy donor blood were genetically modified using the piggyBac® DNA modification system in combination with the Cas-CLOVER™ gene-editing system (CC) to produce allogeneic (Allo) CAR-T cells. […] Following EP, all cells were subsequently stimulated with a cocktail of agonist mAbs anti-CD2, anti-CD3 and anti-CD28, and were later selected for genetic modification over the course of up to a 14-day culture period using the selection gene. At the end of the initial culture period, all T cells expressed the CAR, indicating successful selection for genetically-modified cells (data not shown). All samples were performed in duplicate, and data is shown in bar graph where error bars represent standard deviation.

B1: CD2z CSR: chimeric stimulatory receptor: CD2 signal peptide, extracellular, transmembrane and cytoplasmic domains with CD3z intracellular domain (SEQ ID NO: 17062) (protein)
chain: MSFPCKFVASFLLIFNVSSKGAVSKEITNALETWGALGQDINLDIPSFQMSDDIDDIKWEKTSDKKKIAQFRKEKETFKEKDTYKLFKNGTLKIKHLKTDDQDIYKVSIYDTKGKNVLEKIFDLKIQERVSKPKISWTCINTTLTCEVMNGTDPELNLYQDGKHLKLSQRVITHKWTTSLSAKFKCTAGNKVSKESSVEPVSCPEKGLDIYLIIGICGGGSLLMVFVALLVFYITKRKKQRSRRNDEELETRAHRVATEERGRKPHQIPASTPQNPATSQHPPPPPGHRSQAPSHRPPPPGHRVQHQPQKRPPAPSGTQVHQQKGPPLPRPRVQPKPPHGAAENSLSPSSNRVKFSRSADAPAYKQGQNQLYNELNLGRREEYDVLDKRRGRDPEMGGKPRRKNPQEGLYNELQKDKMAEAYSEIGMKGERRRGKGHDGLYQGLSTATKDTYDALHMQALPPR
For B1, the “degranulation (CD107a) against CD58” value with human CD58 is recorded as “capable of degranulating at levels above background”. Further, the “degranulation (CD107a) against CD48” value with human CD48 was “not against human CD48 or CD59”. For the same molecule, the “peak expansion of Allo CAR-T cells compared to Allo CAR-T cells produced without a CSR” value in the test with Allo CAR-T cells is on record as “a greater degree of expansion”. Moreover, in the test on TCRb and b2M, the “degree of gene editing compared to Allo CAR-T cells produced without a CSR” value is “a similar or greater degree of gene editing”.
